Data taken from US20230357367A1.
Like-named read-outs stand apart in the source and are kept apart here.

Columns and labels:
Assay in all cases: cell-based or functional assay
[1] = molecular target: WIV1 Spike on pseudovirus (WIV1 (bat SARS-like coronavirus))
[2] = molecular target: SARS-CoV-1 Spike on pseudovirus (SARS-CoV-1) (UniProt P59594)
[3] = molecular target: WIV1 Spike on pseudovirus (WIV1 (bat SARS-like coronavirus)); remark: listed apart in the source
[4] = molecular target: SARS-CoV-1 Spike on pseudovirus (SARS-CoV-1) (UniProt P59594); remark: listed apart in the source
[5] = molecular target: spike (WIV-1) (WIV1 (bat SARS-like coronavirus))
[6] = molecular target: spike (SARS-CoV-1) (SARS-CoV-1) (UniProt P59594)

For AZD1061 (antibody), the % neutralization at 4.5 µg/ml, pseudovirus [1] was 0.8% and the % neutralization at 4.5 µg/ml, pseudovirus [2] was 1.2%.

AZD8895 (antibody) showed a % neutralization at 4.5 µg/ml, pseudovirus [1] of 0.6% and a % neutralization at 4.5 µg/ml, pseudovirus [2] of 1.7%.

In the case of “Sotrovimab VH/VL (human IgG1 molecule expressing the same variable regions of Sotrovimab) (antibody)”, the % neutralization at 4.5 µg/ml, pseudovirus [1] is reported as 99.4%, the IC50, pseudovirus neutralization [1] is reported as 0.032 mg/L and the % neutralization at 4.5 µg/ml, pseudovirus [2] is reported as 101%. For the same substance, the IC50, pseudovirus neutralization [2] was 0.014 mg/L, the IC50, pseudovirus neutralization [3] was 0.0274 mg/L and the IC50, pseudovirus neutralization [4] was 0.0089 mg/L.

For bebtelovimab (antibody), the Emax, pseudovirus neutralization (% neutralization) [5] was 6.99 and the Emax, pseudovirus neutralization (% neutralization) [6] was 8.
